Measured values from US7745587 (DYAX, dated 2010).

B1: M0037-C09 IgG (antibody, V domains shown)
VH: EVQLLESGGGLVQPGGSLRLSCAASGFTFSHYEMFWVRQAPGKGLEWVSSISPSGGQTHYADSVKGRFTISRDNSKNTLYLQMNSLRAEDTAVYYCATDRTYYDFWSGYGPLWYWGQGTLVTVSS
VL: DIQMTQSPLSLPVTLGESASVSCRSSQSLLHENGHNYLDWYLQKPGQSPQLLIYLGSNRASGVPDRFSGSGSGTDFTLKISRVEAEDVGVYYCMQSLKTPPTFGPGTKVEIK
notes: IgG of the Fab; also called M037-C09
B2: M0037-D01 IgG (antibody, V domains shown)
VH: EVQLLESGGGLVQPGGSLRLSCAASGFTFSMYMMIWVRQAPGKGLEWVSSIYPSGGNTMYADSVKGRFTISRDNSKNTLYLQMNSLRAEDTAVYYCATGVLRYFDWDAGSGMDVWGQGTTVTVSS
VL: DIQMTQSPSSLSASVGDRVTITCRASQGIRNDLGWYQQKPGKAPKRLIYVASSLQSGVPSRFSGSGSGTEFTLTISSLQPEDFATYYCLQHNSYPWTFGQGTKVEIK
notes: IgG of the Fab
B3: M0033-H07 IgG (antibody, V domains shown)
VH: EVQLLESGGGLVQPGGSLRLSCAASGFTFSVYGMVWVRQAPGKGLEWVSVISSSGGSTWYADSVKGRFTISRDNSKNTLYLQMNSLRAEDTALYYCARPFSRRYGVFDYWGQGTLVTVSS
VL: DIQMTQSPSSLSASVGDRVTITCRASQGIRNFLAWYQQKPGKVPKLLVFGASALQSGVPSRFSGSGSGTDFTLTISGLQPEDVATYYCQKYNGVPLTFGGGTKVEIK
notes: IgG of the Fab
B4: M0038-F01 IgG (antibody, V domains shown)
VH: EVQLLESGGGLVQPGGSLRLSCAASGFTFSLYSMNWVRQAPGKGLEWVSSIYSSGGSTLYADSVKGRFTISRDNSKNTLYLQMNSLRAEDTAVYYCARGRAFDIWGQGTMVTVSS
VL: DIQMTQSPSSLSAFVGDKVTITCRASQSVGTYLNWYQQKAGKAPELLIYATSNLRSGVPSRFSGSGSGTDFTLTINTLQPEDFATYYCQQSYSIPRFTFGPGTKVDIK
notes: IgG of the Fab
B5: M0038-F01 germline (antibody, human IgG1, kappa, V domains shown)
VH: EVQLLESGGGLVQPGGSLRLSCAASGFTFSLYSMNWVRQAPGKGLEWVSSIYSSGGSTLYADSVKGRFTISRDNSKNTLYLQMNSLRAEDTAVYYCARGRAFDIWGQGTMVTVSS
VL: DIQMTQSPSSLSASVGDRVTITCRASQSVGTYLNWYQQKPGKAPKLLIYATSNLRSGVPSRFSGSGSGTDFTLTISSLQPEDFATYYCQQSYSIPRFTFGPGTKVDIKR
notes: Full chains; the ranges 20-464 and 20-234 come from claims 16, 18 and 20
B6: M0043-G02 IgG (antibody, V domains shown)
VH: EVQLLESGGGLVQPGGSLRLSCAASGFTFSWYPMFWVRQAPGKGLEWVSGIYSSGGPTDYADSVKGRFTISRDNSKNTLYLQMNSLRAEDTAVYYCAKDTLGRYYDFWSGYSYGMDVWGQGTTVTVSS
VL: DIQMTQSPGTLSLSPGERATLSCRASQSVSSSYLAWYQQKPGQAPRLLIYGASSRATGIPDRFSGSGSGTDFTLTISRLEPEDFAVYYCQSGVTFGGGTKVEIK
notes: IgG of the Fab

Assays:
human MMP-14 [1] = molecular target: T1, human MMP-14 (human, UniProt P50281 112-541, limits assumed); test: cell-based or functional assay
human MMP-14 [2] = molecular target: T1, human MMP-14; test: enzymatic assay, IgG, 2 nM MMP-14, peptide substrate at 10, 14, 18 µM; highest Ki measured
Method: (§1) K_i studies were performed using an enzymatic assay at substrate [Mca-Pro-Leu-Ala-Cys(Mob)-Trp-Ala-Arg-Dap(Dnp)-NH_2] concentrations of 10 μM, 14 μM and 18 μM. […] The concentration of MMP-14 was 2 nM.

human MMP-14 [3] = molecular target: T1, human MMP-14; test: enzymatic inhibition assay, 2 nM MMP-14, 10 uM substrate Mca-Pro-Leu-Ala-Cys(Mob)-Trp-Ala-Arg-Dap(Dnp)-NH2; rate against [IgG] 0-50 nM
Method: as §1

human MMP-14 [4] = molecular target: T1, human MMP-14; test: enzymatic inhibition assay, 2 nM MMP-14, 14 uM substrate Mca-Pro-Leu-Ala-Cys(Mob)-Trp-Ala-Arg-Dap(Dnp)-NH2; rate against [IgG] 0-50 nM
Method: as §1

human MMP-14 [5] = molecular target: T1, human MMP-14; test: enzymatic inhibition assay, 2 nM MMP-14, 18 uM substrate Mca-Pro-Leu-Ala-Cys(Mob)-Trp-Ala-Arg-Dap(Dnp)-NH2; rate against [IgG] 0-50 nM
Method: as §1

human MMP-14 [6] = molecular target: T1, human MMP-14; test: enzymatic inhibition assay against 2 pM hMMP-14; rate (dF/min) against [I] 0-100 nM; value taken from the line under the panel marked Parental, not from its inset table
[7] = molecular target: mouse MMP-14 in arthritic knee joints of C57Bl6 mice (mouse, UniProt P53690 112-582); test: immunohistochemistry of mouse joints, acute SCW-induced arthritis
human MMP-14 [8] = molecular target: T1, human MMP-14; test: enzymatic inhibition assay against 2 pM hMMP-14; rate (dF/min) against [I] 0-100 nM
human MMP-14 [9] = molecular target: T1, human MMP-14; test: enzymatic inhibition assay against 2 pM hMMP-14; rate (dF/min) against [I] 0-50 nM

| Binder | IC50 of MMP-14 inhibition (MMP-14 at 2 pM), IgG (human MMP-14 [1]) [nM] | Ki (human MMP-14 [2]) [nM] | Ki (human MMP-14 [3]) [nM] | Ki (human MMP-14 [4]) [nM] | Ki (human MMP-14 [5]) [nM] | IC50 (human MMP-14 [6]) [nM] | binding result [7] | IC50 (human MMP-14 [8]) [nM] | IC50 (human MMP-14 [9]) [nM] |
| --- | --- | --- | --- | --- | --- | --- | --- | --- | --- |
| B1 | 4.2 | 8.6 | 7.2 | 6.3 | – | – | – | – | – |
| B2 | 1.7 | 2.9 | – | 1.7 | 2 | – | – | – | – |
| B3 | 5.1 | 4 | 3.3 | 2.7 | – | 12.2 | – | – | – |
| B4 | 2 | 1.2 | 0.6 | 0.9 | – | – | binds | 8.3 | – |
| B5 | – | – | – | – | – | – | – | – | 5.13 |
| B6 | 0.3 | 1.2 | 0.7 | – | 1.1 | – | – | – | – |
